Experimental data from article doi:10.1101/2022.11.09.515846 (bioRxiv, 2022).

Molecular target: T1, human Ndc80 loop segment (residues 370–509) with a cysteine added at each end (human, UniProt O14777 370-509)
T1 chain: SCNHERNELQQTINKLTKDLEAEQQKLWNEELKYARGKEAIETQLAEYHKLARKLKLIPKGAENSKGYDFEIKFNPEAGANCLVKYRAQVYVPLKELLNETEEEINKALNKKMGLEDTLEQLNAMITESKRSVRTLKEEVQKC
Assay: crystal structure

binding result: binds
B1: human Nuf2 segment (residues 252–347) with a cysteine added at each end (domain or fragment)
chain: CKNYKEKMKDTVQKLKNARQEVVEKYEIYGDSVDCLPSCQLEVQLYQKKIQDLSDNREKLASILKESLNLEDQIESDESELKKLKTEENSFKRLMIVC
